Substrate: O=C(Nc1cc(Cl)cc(Cl)c1)Nc1cc(Cl)cc(Cl)c1
Assay: Kinetics of GST-P using COH-SR4 as a substrate
Type: biochemical
Conditions: other: COH-SR4 as substrate, 1 mM GSH, pH 6.5, 340 nm, 37.0 °C
Description: The cDNA of GSTP was cloned into the prokaryotic expression plasmid vector, pET30a(+) (Novagen), creating the GSTP-pET30a(+) plasmid free of extraneous sequences. Bam H1 and Xhol restriction sites were used for cloning. This plasmid was transfected into E. coli BL21 (DE3). Protein was expressed in E. coli BL21 (DE3) grown at 37° C. Once the OD600 reached 0.6 protein was induced with 0.4 mM IPTG.
All purification steps were carried out at 4° C. unless otherwise specified. All buffers were prepared fresh and filter sterilized. Briefly, bacteria was lysed in 10 mM K-PO4 buffer pH 7.0 containing 1.4 mM β-mercaptoethanol (Buffer A) and 100 μM PMSF followed by sonication at 50 rpm for 3 times at 30 sec each. […] The supernatant was mixed with GSH-affinity resin for coupling for overnight at 4° C. The unbound proteins were washed with Buffer B until OD at 280 nm is zero. Bound protein (purified GSTP) was eluted with 50 mM Tris-HCl, pH 9.6 containing 1.4 mM β-mercaptoethanol. Elutes protein was dialyzed against Buffer A for overnight and the GSTP protein concentration was checked by Bradford's assay.
Reaction systems were prepared by mixing COH-SR4 (50 μL, various final concentrations of 0˜10 μM), 100 μL of 10 mM GSH (GSH solution in GST assay buffer, pH 6.5), 10 μL of GSTP enzyme (0.52 mg/mL) and having 840 μL GST assay buffer (100 mM K-PO4 buffer, pH 6.5). […]

B1: GST-P (Homo sapiens) (protein)
chain: MPPYTVVYFPVRGRCAALRMLLADQGQSWKEEVVTVETWQEGSLKASCLYGQLPKFQDGDLTLYQSNTILRHLGRTLGLYGKDQQEAALVDMVNDGVEDLRCKYISLIYTNYEAGKDDYVKALPGQLKPFETLLSQNQGGKTFIVGDQISFADYNLLDLLLIHEVLAPGCLDAFPLLSAYVGRLSARPKLKAFLASPEYVNLPINGNGKQ
notes: made in house; host or cells: E. coli BL21 (DE3)
**Q.** With B1 as the protein, how does the Km read?
**A.** The Km was 40 µM.

Reference: patent publication US9808434B2, “Compound for treating cancer and diabetes” (CITY OF HOPE, priority 2011, dated 2017)
